The text below walks through data of patent US7514534.

This experiment concerns the target T1, MMP-26 (human).
T1 sequence: ASDF
The experiment in a line: cell-based or functional assay.

B1: A04 (antibody, human IgG4, V domains shown)
VH: EVQLLESGGGLVQPGGSLRLSCAASGFTFSEYNMAWVRQAPGKGLEWVSRIGSSGGKTKYADSVKGRFTISRDNSKNTLYLQMNSLRAEDTAVYYCARDEAPDYGDDAEAFDIWGQGTMVTVSS
VL: QSALTQPPSASGTPGQRVTISCSGGYSNMGSNYAHWYQQVPGTAPKLLIYNNNQRPSGVPDRFSGSKSGTSASLAISGLRSEDEADYYCAAWDENLSGPVFGTGTKVTVLG
For the molecule B1, the % Inhibition of JEG-3 cell invasion, 5 µg/ml (first test) worked out at 6% and the % Inhibition of JEG-3 cell invasion, 25 µg/ml (first test) worked out at 27%.

B2: B10 (antibody, human IgG4, V domains shown)
VH: EVQLLESGGGLVQPGGSLRLSCAASGFTFSSYAMMWVRQAPGKGLEWVSWIVPSGGTTFYADSVKGRFTISRDNSKNTLYLQMNSLRAEDTAVYYCARGLYRWGQGTLVTVSSASTKGPSVFP
VL: DIQMTQSPSSLSASVGDRVTIACRTSQNVNRYLNWYQHKLGQAPKLLIYGATILQSGVPSRFRGSGSGTDFILTITNLQPEDFAVYYCQQTYSPPLTFGQGTKAEFKGTVAAPSV
With B2, the % Inhibition of JEG-3 cell invasion, 1 µg/ml (further test) amounted to 6%; the % Inhibition of JEG-3 cell invasion, 5 µg/ml (first test) was found to be 48%; the % Inhibition of JEG-3 cell invasion, 5 µg/ml (further test) amounted to 5%; the % Inhibition of JEG-3 cell invasion, 25 µg/ml (first test) came to 26%. For the same molecule, the % Inhibition of JEG-3 cell invasion, 25 µg/ml (further test) stood at 11% and the % Inhibition of JEG-3 cell invasion, 50 µg/ml (further test) came out at 22%.

B3: A01 (antibody, human IgG4, V domains shown)
VH: EVQLLESGGGLVQPGGSLRLSCAASGFTFSAYNMFWVRQAPGKGLEWVSGIGSSGGIAPYADSVKGRFTISRDNSKNTLYLQMNSLRAEDTAVYYCARAAYEVENWFDPWGQGTLVTVSS
VL: DIQMTQSPGTLSLSPGERATLSCRASQIVRSTYLAWYQQKPGQAPRLLIYGTSSRATGVPDRFSGSGSGTDFTLTISGLEPEDFALYYCQRYGDSPPITFGQGTRLEITR
Consider B3, for which the % Inhibition of JEG-3 cell invasion, 1 µg/ml (further test) was determined as 30%; the % Inhibition of JEG-3 cell invasion, 5 µg/ml (first test) is 19%; the % Inhibition of JEG-3 cell invasion, 5 µg/ml (further test) was found to be 47%; the % Inhibition of JEG-3 cell invasion, 25 µg/ml (first test) amounted to 51%. The molecule further returned a % Inhibition of JEG-3 cell invasion, 25 µg/ml (further test) of 54% and a % Inhibition of JEG-3 cell invasion, 50 µg/ml (further test) of 70%.

B4: B04 (antibody, human IgG4, V domains shown)
VH: EVQLLESGGGLVQPGGSLRLSCAASGFTFSFYWMMWVRQAPGKGLEWVSGISSSGGFTKYADSVKGRFTISRDNSKNTLYLQMNSLRAEDTAVYYCARETSRRAFDIWGQGTMVTVSS
VL: DIQMTQSPSSVSASVGDRVTITCRASQGISKSLAWYQQKPGKAPKLLVYGAFSLESGVPSRFSGTGAGTDFILTISRLQPEDFATYYCQQANSFPLTFGGGTKVEIKR
Consider B4, for which the % Inhibition of JEG-3 cell invasion, 5 µg/ml (first test) was found to be 36% and the % Inhibition of JEG-3 cell invasion, 25 µg/ml (first test) turned out to be 14%.

B5: C01 (antibody, human IgG4, V domains shown)
VH: EVQLLESGGGLVQPGGSLRLSCAASGFTFSNYGMSWVRQAPGKGLEWVSVIGPSGGITMYADSVKGRFTISRDNSKNTLYLQMNSLRAEDTAVYYCATGSSSGWYPNFDYWGQGTLVTVSS
VL: DIQMTQSPSTLSASVGDRVTITCRASQSIGNWLAWYQQKPGEAPHLLIYQASSLEGGVPSRFSGSGSGTKFTLNISSLQPDDFATYYCQQYNSYSYTFGQGTKLDIKR
On to B5, for which the % Inhibition of JEG-3 cell invasion, 1 µg/ml (further test) is -2%; the % Inhibition of JEG-3 cell invasion, 5 µg/ml (first test) came to 43%; the % Inhibition of JEG-3 cell invasion, 5 µg/ml (further test) was 16%; the % Inhibition of JEG-3 cell invasion, 25 µg/ml (first test) came to 34%. In addition, the % Inhibition of JEG-3 cell invasion, 25 µg/ml (further test) worked out at 21% and the % Inhibition of JEG-3 cell invasion, 50 µg/ml (further test) was determined as 42%.

B6: A1-orig (antibody, human IgG4, V domains shown)
VH: EVQLLESGGGLVQPGGSLRLSCAASGFTFSYYRMSWVRQAPGKGLEWVSSIGPSGGDTLYADSVKGRFTISRDNSKNTLYLQMNSLRAEDTAVYYCARSFSSGPYYFDYWGQGTLVTVSS
VL: QSVLTQPPSASGTPGQRVIISCSGSSSNIGSHYVHWYQQVPGTAPKLLIYRNGQRPSGVPDRFSGFKSGTSASLAISGLRSEDEANYYCATWDDSVLFGGGTTLTVLG
As for B6, the % Inhibition of JEG-3 cell invasion, 1 µg/ml (further test) came to 53%; the % Inhibition of JEG-3 cell invasion, 5 µg/ml (first test) is 40%; the % Inhibition of JEG-3 cell invasion, 5 µg/ml (further test) was 58%; the % Inhibition of JEG-3 cell invasion, 25 µg/ml (first test) was 66%. The % Inhibition of JEG-3 cell invasion, 25 µg/ml (further test) was 64% and the % Inhibition of JEG-3 cell invasion, 50 µg/ml (further test) was determined as 74%.

B7: B06 (antibody, human IgG4, V domains shown)
VH: EVQLLESGGGLVQPGGSLRLSCAASGFTFSQYFMKWVRQAPGKGLEWVSSISPSGGLTQYADSVKGRFTISRDNSKNTLYLQMNSLRAEDTAVYYCARGGIEAPGSPSDYWGQGTLVTVSS
VL: DIQMTQSPSFLSASVGDRVTITCRASQGISSYLAWYQQKPGKAPKLLIYAASTLQSGVPSRFSGSGSGTDFTLTISSLEPEDFATYYCQESYSTPFFTFGPGTKVDIRR
B7 returned a % Inhibition of JEG-3 cell invasion, 5 µg/ml (first test) of 34% and a % Inhibition of JEG-3 cell invasion, 25 µg/ml (first test) of 30%.

B8: A11 (antibody, human IgG4, V domains shown)
VH: EVQLLESGGGLVQPGGSLRLSCAASGFTFSWYTMMWVRQAPGKGLEWVSRISPSGGHTLYADSVKGRFTISRDNSZNTLYLQMNSLRAEDTAVYYCARDTWDDYYDSSGYYNDFDYWGQGTLVTVSS
VL: QSALTQPPSVSLAPGQTARITCGGNNIGTKSVHWYQQKPGQAPVLVVYDDSDRPSGIPERFSGSNSGNTATLTISRVEAGDEADYYCQVWDSGSDHQVFGGGTKLTVLG
As to B8, the % Inhibition of JEG-3 cell invasion, 1 µg/ml (further test) came to 51%; the % Inhibition of JEG-3 cell invasion, 5 µg/ml (first test) was 28%; the % Inhibition of JEG-3 cell invasion, 5 µg/ml (further test) is 54%; the % Inhibition of JEG-3 cell invasion, 25 µg/ml (first test) was 56%. For the same molecule, the % Inhibition of JEG-3 cell invasion, 25 µg/ml (further test) worked out at 59% and the % Inhibition of JEG-3 cell invasion, 50 µg/ml (further test) worked out at 73%.

B9: D6-orig (antibody, human IgG4, V domains shown)
VH: EVQLLESGGGLVQPGGSLRLSCAASGFTFSMYSMRWVRQAPGKGLEWVSSIYPSGGSTEYADSVKGRFTISRDNSKNTLYLQMNSLRAEDTAVYYCAREGGENDYWGQGTLVTVSS
VL: DIQMTQSPLSLSASVGDRVAITCRASQSIDTYLNWYQQKPGKAPKLLIYAASKLEDGVPSRFSGSGTGTDFTLTIRSLQPEDFASYFCQQSYSSPGITFGPGTKVEIKR
As to B9, the % Inhibition of JEG-3 cell invasion, 1 µg/ml (further test) came out at 42%; the % Inhibition of JEG-3 cell invasion, 5 µg/ml (first test) amounted to 41%; the % Inhibition of JEG-3 cell invasion, 5 µg/ml (further test) is 55%; the % Inhibition of JEG-3 cell invasion, 25 µg/ml (first test) is 52%. The molecule further came in with a % Inhibition of JEG-3 cell invasion, 25 µg/ml (further test) of 70% and a % Inhibition of JEG-3 cell invasion, 50 µg/ml (further test) of 35%.

B10: H6-orig (antibody, human IgG4, V domains shown)
VH: EVQLLESGGGLVQPGGSLRLSCAASGFTFSQYWMNWVRQAPGKGLEWVSGIGPSGGITYYADSVKGRFTISRDNSKNTLYLQMNSLRAEDTAVYYCARGEEDGYNSDYWGQGTLVTVSS
VL: QSELTQPPSASGSPGQSVTISCTGTSSDVGAYNYVSWYQQHPGKAPKLIIYEVNKRPSGVPDRFSASKSGNTASLTVSGLQAEDEADYYCNSYAGSNSLIFGGGTKLTVLG
B10: the % Inhibition of JEG-3 cell invasion, 1 µg/ml (further test) came out at 49%; the % Inhibition of JEG-3 cell invasion, 5 µg/ml (first test) stood at 24%; the % Inhibition of JEG-3 cell invasion, 5 µg/ml (further test) is 52%; the % Inhibition of JEG-3 cell invasion, 25 µg/ml (first test) turned out to be 50%. Further, the % Inhibition of JEG-3 cell invasion, 25 µg/ml (further test) turned out to be 57% and the % Inhibition of JEG-3 cell invasion, 50 µg/ml (further test) was determined as 39%.
